Test results taken from US20170035877A1 (published 2017).

Target: soluble four-domain CD4 (UniProt P01730 26-390)
Test: ITC

B1: 16055 SOSIP.663 trimer, negatively selected (flow-through of the GE136 column) (other)
chain 1: not shown
chain 2: AVGLGAVIFGFLGAAGSTMGAASITLTVQARQLLSGIVQQQSNLLKAPEAQQHLLQLTVWGIKQLQTRVLAIERYLKDQQLLGIWGCSGKLICCTAVPWNSSWSNKSHDEIWGNMTWMQWDREISNYTNTIYRLLEDSQNQQEQNEKDLLAL
- Kd: 6 nM
